PMC7327923

Legend:
[1] = biological target: Dps protein from Thermoleptolyngbya sp. O-77 (TlDps1) (Thermoleptolyngbya sp. O-77); test: SEC-RALS; TlDps1 as isolated, 206 µg/mL; Superdex 200 Increase, 303 K, 10 mM Tris/HCl pH 8.0, 0.5 mL/min
[2] = biological target: Dps protein from Thermoleptolyngbya sp. O-77 (TlDps1) (Thermoleptolyngbya sp. O-77); test: SDS/PAGE; 5-20% gel; sample buffer with 2% SDS and 14.4 mM 2-mercaptoethanol; incubated 10 min at 298, 323 or 348 K before loading
[3] = biological target: Dps protein from Thermoleptolyngbya sp. O-77 (TlDps1) (Thermoleptolyngbya sp. O-77); test: crystal structure; hanging drop, 293 K, TlDps1 4.0 mg/mL in 10 mM Tris/HCl pH 8.0 with 0.15 M cesium chloride and 18% PEG 3350; 2.9 Å; six subunits in the asymmetric unit
[4] = biological target: Dps protein from Thermoleptolyngbya sp. O-77 (TlDps1) (Thermoleptolyngbya sp. O-77); test: native gel or EMSA; native PAGE, 5-20% gel; TlDps1 in 10 mM Tris/HCl pH 8.0, also after DNase I treatment

Measured: stoichiometry N

Dps protein from Thermoleptolyngbya sp. O-77 (TlDps1) (natural protein)
12: [1] | [2] | [3] | [4]
